Reference: publication PMC6783653, “TIP30 counteracts cardiac hypertrophy and failure by inhibiting translational elongation” (EMBO Molecular Medicine, 2019)

Target: T1, GST-tagged eEF1A1 (rat, UniProt P62630 1-462)
T1 construct: eEF1A1, rat, open reading frame BC128723.1; Cloned into pGEX-4T1, which should place GST at the N-terminus (surmise); also called GST-eEF1A1
T1 sequence (looked up): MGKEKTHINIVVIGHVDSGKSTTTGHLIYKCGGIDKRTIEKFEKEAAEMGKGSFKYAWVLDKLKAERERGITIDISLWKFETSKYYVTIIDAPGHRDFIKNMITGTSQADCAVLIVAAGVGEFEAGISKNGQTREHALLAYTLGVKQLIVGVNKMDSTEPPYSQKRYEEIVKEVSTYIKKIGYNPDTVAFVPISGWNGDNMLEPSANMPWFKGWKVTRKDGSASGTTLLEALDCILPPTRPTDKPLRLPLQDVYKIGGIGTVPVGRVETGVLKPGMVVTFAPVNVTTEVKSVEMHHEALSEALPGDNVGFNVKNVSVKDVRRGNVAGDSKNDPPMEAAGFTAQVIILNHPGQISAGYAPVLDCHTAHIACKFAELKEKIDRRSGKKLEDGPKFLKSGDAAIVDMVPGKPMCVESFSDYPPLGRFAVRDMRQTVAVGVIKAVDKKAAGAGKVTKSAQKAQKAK
Assay: pull-down; GST or GST-eEF1A1 on glutathione agarose beads, purified eEF1B2-His; purified TIP30-His added in increasing amounts
Settings: both partners purified

B1: purified eEF1B2-His (natural protein, rat, UniProt A6IPG1 1-225, looked up)
chain: MGFGDLKTPAGLQVLNDYLADKSYIEGYVPSQADVAVFEAISGPPPADLCHALRWYNHIKSYEKEKASLPGVKKSLGKYGPVSVADTTGSGAADAKDDDDIDLFGSDDEEESEDAKRLREERLAQYESKKAKKPAVVAKSSILLDVKPWDDETDMTKLEECVRSIQADGLVWGSSKLVPVGYGIKKLQIQCVVEDDKVGTDMLEEQITAFEDYVQSMDVAAFNKI
notes: eEF1B2, rat, open reading frame NM_001108799.2
- binding result: binds
